B1: CH3 (Dia-CH3-Dia; paratopes 5019; 2539) (bispecific antibody)
chain: MNLLLILTFVAAAVAEFEVQLVESGGGLVQPGGSLRLSCAASGFNIGSSSIHWVRQAPGKGLEWVASIYSAFASTSYADSVKGRFTISADTSKNTAYLQMNSLRAEDTAVYYCARYHFPFGFALDYWGQGTLVTVSSGGGGSDIQMTQSPSSLSASVGDRVTITCRASQSVSSAVAWYQQKPGKAPKLLIYSASSLYSGVPSRFSGSRSGTDFTLTISSLQPEDFATYYCQQGVYLFTFGQGTKVEIKDKTHTKVEPKTSDKTHTCPPCPGQPREPQVYTLPPSREEMTKNQVSLTCLVKGFYPSDIAVEWESNGQPENNYKTTPPVLDSDGSFFLYSKLTVDKSRWQQGNVFSCSVMHEALHNHYTQKSLSLSPGKGTTAASGSSGGSSSGAGRTEVQLVESGGGLVQPGGSLRLSCAASGFNISYSSIHWVRQAPGKGLEWVAYISSYYGYTYYADSVKGRFTISADTSKNTAYLQMNSLRAEDTAVYYCARAHYFPWAGAMDYWGQGTLVTVSSGGGGSDIQMTQSPSSLSASVGDRVTITCRASQSVSSAVAWYQQKPGKAPKLLIYSASSLYSGVPSRFSGSRSGTDFTLTISSLQPEDFATYYCQQYSWGPFTFGQGTKVEIK
B2: CT0003 (Table 5: FZD Diabody-Fc-LRP scFv; paratopes 5016; 2539, 2542) (bispecific antibody)
chain 1: MNLLLILTFVAAAVAEFEVQLVESGGGLVQPGGSLRLSCAASGFNISSYYIHWVRQAPGKGLEWVASIYSSYGYTSYADSVKGRFTISADTSKNTAYLQMNSLRAEDTAVYYCARTVRGSKKPYFSGWAMDYWGQGTLVTVSSGGGGSDIQMTQSPSSLSASVGDRVTITCRASQSVSSAVAWYQQKPGKAPKLLIYSASSLYSGVPSRFSGSRSGTDFTLTISSLQPEDFATYYCQQYSWGPFTFGQGTKVEIKLEDKTHTKVEPKSSDKTHNCPPCPAPELLGGPSVFLFPPKPKDTLMISRTPEVTCVVVDVSHEDPEVKFNWYVDGVEVHNAKTKPREEQYNSTYRVVSVLTVLHQDWLNGKEYKCKVSNKALPAPIEKTISKAKGQPREPQVYTLPPIRELMTSNQVSLSCAVKGFYPSDIAVEWESNGQPENNYKTTPPVLDSDGSFFLVSKLTVDKSRWQQGNVFSCSVMHEALHNHYTQKSLSLSPGKSGSETPGTSESATPESGGGEVQLVESGGGLVQPGGSLRLSCAASGFNIHSSSIHWVRQAPGKGLEWVAATYSSFGSITYADSVKGRFTISADTSKNTAYLQMNSLRAEDTAVYYCARYHHPFGYALDYWGQGTLVTVSSGTTAASGSSGGSSSGADIQMTQSPSSLSASVGDRVTITCRASQSVSSAVAWYQQKPGKAPKLLIYSASSLYSGVPSRFSGSRSGTDFTLTISSLQPEDFATYYCQQGVYLFTFGQGTKVEIK
chain 2: MNLLLILTFVAAAVAEFEVQLVESGGGLVQPGGSLRLSCAASGFNISYSSIHWVRQAPGKGLEWVAYISSYYGYTYYADSVKGRFTISADTSKNTAYLQMNSLRAEDTAVYYCARAHYFPWAGAMDYWGQGTLVTVSSGGGGDIQMTQSPSSLSASVGDRVTITCRASQSVSSAVAWYQQKPGKAPKLLIYSASSLYSGVPSRFSGSRSGTDFTLTISSLQPEDFATYYCQQYYWPITFGQGTKVEIKLEDKTHTKVEPKTSDKTHTCPPCPAPELLGGPSVFLFPPKPKDTLMISRTPEVTCVVVDVSHEDPEVKFNWYVDGVEVHNAKTKPREEQYNSTYRVVSVLTVLHQDWLNGKEYKCKVSNKALPAPIEKTISKAKGQPREPMVFDLPPSREEMTKNQVSLWCMVKGFYPSDIAVEWESNGQPENNYKTTPPVLDSDGSFFLYSKLTVDKSRWQQGNVFSCSVMHEALHNHYTQKSLSLSPGKSGSETPGTSESATPESGGGEVQLVESGGGLVQPGGSLRLSCAASGFNIHSSSIHWVRQAPGKGLEWVAATYSSFGSITYADSVKGRFTISADTSKNTAYLQMNSLRAEDTAVYYCARYHHPFGYALDYWGQGTLVTVSSGTTAASGSSGGSSSGADIQMTQSPSSLSASVGDRVTITCRASQSVSSAVAWYQQKPGKAPKLLIYSASSLYSGVPSRFSGSRSGTDFTLTISSLQPEDFATYYCQQGVYLFTFGQGTKVEIK
B3: Fab-Dia (paratopes 5016; 2540/2542) (bispecific antibody)
heavy: EVQLVESGGGLVQPGGSLRLSCAASGFNIHSSSIHWVRQAPGKGLEWVAATYSSFGSITYADSVKGRFTISADTSKNTAYLQMNSLRAEDTAVYYCARYHHPFGYALDYWGQGTLVTVSSASTKGPSVFPLAPSSKSTSGGTAALGCLVKDYFPEPVTVSWNSGALTSGVHTFPAVLQSSGLYSLSSVVTVPSSSLGTQTYICNVNHKPSNTKVDKKVEPKSCDKTHTGGSGGEVQLVESGGGLVQPGGSLRLSCAASGFTISYSSIHWVRQAPGKGLEWVASISPYYGYTYYADSVKGRFTISADTSKNTAYLQMNSLRAEDTAVYYCARSSYFPWFSAMDYWGQGTLVTVSSGGGGSDIQMTQSPSSLSASVGDRVTITCRASQSVSSAVAWYQQKPGKAPKLLIYSASSLYSGVPSRFSGSRSGTDFTLTISSLQPEDFATYYCQQYYWPITFGQGTKVEIK
light: DIQMTQSPSSLSASVGDRVTITCRASQSVSSAVAWYQQKPGKAPKLLIYSASSLYSGVPSRFSGSRSGTDFTLTISSLQPEDFATYYCQQGVYLFTFGQGTKVEIKRTVAAPSVFIFPPSDEQLKSGTASVVCLLNNFYPREAKVQWKVDNALQSGNSQESVTEQDSKDSTYSLSSTLTLSKADYEKHKVYACEVTHQGLSSPVTKSFNRGECGGGGSEVQLVESGGGLVQPGGSLRLSCAASGFTISSYYIHWVRQAPGKGLEWVASIYSSYGYTSYADSVKGRFTISADTSKNTAYLQMNSLRAEDTAVYYCARTVRGSKKPYFSGWAMDYWGQGTLVTVSSGGGGSDIQMTQSPSSLSASVGDRVTITCRASQSVSSAVAWYQQKPGKAPKLLIYSASSLYSGVPSRFSGSRSGTDFTLTISSLQPEDFATYYCQQYYFLITFGQGTKVEIK

Biological target: FZD1/2/4/5/7/8
Assay: cell-based or functional assay

Row | Binder | TOPFLASH Maximal Signal (% Wnt3a maxima) (% Wnt3a maxima) | TOPFLASH % Wnt Maxima | TOPFLASH EC50
1 | B1 | 22 | – | –
2 | B2 | – | 42 % Wnt Maxima | 0.4 nM
3 | B3 | 42 | – | 0.4 nM

From patent publication US20260250398A1
